# T1: human S100A9 (human), P06702
# T1 chain: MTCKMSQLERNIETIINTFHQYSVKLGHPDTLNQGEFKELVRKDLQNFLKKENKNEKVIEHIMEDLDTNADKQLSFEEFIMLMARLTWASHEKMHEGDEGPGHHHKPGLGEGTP
# T2: human S100A9 (human, UniProt P06702 1-114)
# T2 construct: human S100A9, UniProt P06702; codon-optimised synthetic gene in pET21a (NdeI/BamHI), expressed without any tags; also called MRP-14
# T2 sequence (looked up): T1 chain
# B1: human S100A9, P06702 1-114 (natural protein)
# chain: T1 chain
# B2: human S100A8 (natural protein, UniProt P05109 1-93, looked up)
# chain: MLTELEKALNSIIDVYHKYSLIKGNFHAVYRDDLKKLLETECPQYIRKKGADVWFKELDINTDGAVNFQEFLILVIKMGVAAHKKSHEESHKE
# notes: human S100A8, UniProt P05109; codon-optimised synthetic gene in pET21a (NdeI/BamHI), expressed without any tags; also called MRP-8
# B3: S100A8/A9 heterodimer (complex, human)
# chain 1: B2 chain
# chain 2: T1 chain
# notes: human S100A8, UniProt P05109; as the chain of m1; no tags; human S100A9, UniProt P06702; as the chain of m2; Heterodimer formed during coexpression; used here only for its own association to a higher complex; also called MRP-8/14; calprotectin; source: E. coli T7 Express, coexpressed from pET21-S100A8-S100A9, purified (cation-exchange chromatography, Peak 1)
# Assays:
# Assay in all cases: SEC; SEC-HPLC (COSMOSIL 5Diol-300-II), 50 mM sodium phosphate buffer pH 6.0, 1.0 mL/min, 30 ug of cation-exchange peak fraction injected; mass estimated with a gel filtration calibration kit
# [1] = target: T1, human S100A9 (human), P06702; conditions: remark: other sources report otherwise
# human S100A9 = target: T2, human S100A9; conditions: both partners purified
# [2] = target: the molecule itself
binder,measurement,setting,value
B1,stoichiometry N,[1],2
B2,binding result,human S100A9,binds
same,stoichiometry N,[2],2
B3,binding result,[2],binds

# — publication PMC5600424, “An efficient method for the preparation of preferentially heterodimerized recombinant S100A8/A9 coexpressed in Escherichia coli” (Biochemistry and Biophysics Reports, 2016)
